Experimental findings from patent WO2019186276A2 (dated 2019) are described below.

Where no end group is shown, it is not given here. [ ]: non-standard residue; d: D form. pT = C[C@@H](OP(=O)(O)O)[C@H](N)C(=O)O

B1: monoclonal antibody DC2E2 (antibody, V domains shown)
VH: EVQLQQSGAELVRPGALVKLSCKASGFNIKDYYMHWVRQRPDQGLEWIGWLDPENDHTIYDPRFQDRANLTADTSSNTAYLQLSSLTSEDTAVYYCSYYKYDDYWGQGTTLTVS
VL: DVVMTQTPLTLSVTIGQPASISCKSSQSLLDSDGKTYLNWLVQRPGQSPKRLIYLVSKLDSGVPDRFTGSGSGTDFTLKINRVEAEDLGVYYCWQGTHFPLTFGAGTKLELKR
notes: also called DC2E2 mAb; hybridoma ATCC PTA-124991
B2: monoclonal antibody DC2E7 (antibody, V domains shown)
VH: DVQLVESGGGLVQPGGSRKLSCAASGFTFSSFGMHWVRQAPEKGLEWVAYISGDSNTIYYADTVKGRFTISRDNPKNTLFLQMTSLRSEDTAIYYCARTLAYWGQGTLVTVS
VL: DIQMTQSSSSFSVSLGDRVTITCKASEDIYNRLAWYQQTPGNAPSLLISGASGLETGVPSRFSGSGSGRDYTLSITSLQTEDVATYYCLQYWSIPWTFGGGTKLEIKR
notes: also called hybridoma ATCC PTA-124992

Assay [1] concerns the target B2. The assay is described as follows: competition ELISA, peptide in solution with DC2E7, PHF-tau coated plate.
Assay [2] concerns the target B1. The assay can be described thus: competition ELISA, coated tau 1-242, peptide in solution. A general note: In an ELISA, binding on a coated surface is turned into a signal by an enzyme label.
The target in a further assay is T1, tau 1-242 (human, UniProt P10636 1-559).
T1 construct: Deletion mutant numbered on tau 2N4R
T1 sequence (P10636 other isoform, or with tags, fused parts or gaps): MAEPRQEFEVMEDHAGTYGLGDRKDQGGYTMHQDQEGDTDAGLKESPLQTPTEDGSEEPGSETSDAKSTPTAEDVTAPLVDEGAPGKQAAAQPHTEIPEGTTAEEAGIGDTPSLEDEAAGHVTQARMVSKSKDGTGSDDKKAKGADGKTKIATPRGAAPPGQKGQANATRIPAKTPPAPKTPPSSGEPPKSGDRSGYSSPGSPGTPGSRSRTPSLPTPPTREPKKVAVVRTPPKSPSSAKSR
The assay can be described thus: ELISA screen of hybridoma supernatants on coated tau 1-242.

The next assay deals with tau 1-136 (human, UniProt P10636 1-387). The assay is described as follows: direct ELISA, coated recombinant tau (5 ug/ml), hybridoma supernatant.
Sequence of tau 1-136 (P10636 other isoform, or with tags, fused parts or gaps): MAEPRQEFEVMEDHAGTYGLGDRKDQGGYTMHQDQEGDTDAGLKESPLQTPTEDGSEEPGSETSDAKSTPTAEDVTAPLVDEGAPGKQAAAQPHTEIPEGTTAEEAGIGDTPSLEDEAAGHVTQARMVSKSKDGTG
A further assay deals with T2, tau 2N4R(A134-168) (human, UniProt P10636 1-758).
T2 construct: The printed 'A' is read as the delta sign (deletion of 134-168); also called tau 2N4R with residues 134-168 deleted
T2 sequence (P10636 other isoform, or with tags, fused parts or gaps): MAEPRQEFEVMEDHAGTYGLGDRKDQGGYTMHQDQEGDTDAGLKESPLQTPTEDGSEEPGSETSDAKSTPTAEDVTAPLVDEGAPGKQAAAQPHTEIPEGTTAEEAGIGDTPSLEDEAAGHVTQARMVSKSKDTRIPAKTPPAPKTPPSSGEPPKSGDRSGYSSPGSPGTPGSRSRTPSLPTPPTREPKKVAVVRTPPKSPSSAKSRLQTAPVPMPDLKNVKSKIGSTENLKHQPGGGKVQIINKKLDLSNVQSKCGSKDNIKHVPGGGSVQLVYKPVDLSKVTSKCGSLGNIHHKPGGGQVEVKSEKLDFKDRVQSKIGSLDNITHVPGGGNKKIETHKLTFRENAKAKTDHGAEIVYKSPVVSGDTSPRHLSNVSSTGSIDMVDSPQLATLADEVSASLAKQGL
The assay is described as above.

The next assay has as its target T3, tau 221-441 (human, UniProt P10636 538-758).
T3 construct: Unphosphorylated form used in the DC2E2 ELISA
The assay is described as above.

In a further assay the target is tau151-391 (human, UniProt P10636 468-708). The assay can be described thus: direct ELISA, coated recombinant tau, hybridoma supernatant.
Sequence of tau151-391 (P10636 468-708 I625L): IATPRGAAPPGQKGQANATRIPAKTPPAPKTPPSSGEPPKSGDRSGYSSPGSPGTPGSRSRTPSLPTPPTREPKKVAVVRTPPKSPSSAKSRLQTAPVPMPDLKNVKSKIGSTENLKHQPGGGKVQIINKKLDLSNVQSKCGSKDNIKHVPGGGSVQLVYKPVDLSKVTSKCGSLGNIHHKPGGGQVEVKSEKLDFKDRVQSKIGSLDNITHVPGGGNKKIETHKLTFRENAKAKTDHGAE
Assay [3] has as its target recombinant human tau isoform 2N3R (human, UniProt P10636-5 1-410). The description is as above.
Assay [4] addresses recombinant human tau isoform 1N3R (human, UniProt P10636-4 1-381). Described as above.
For a further assay, the target named is tau 99-441 (human, UniProt P10636 99-758). The description is as above.
The target in assay [5] is recombinant human tau isoform 0N3R (human, UniProt P10636-2 1-352). Described as above.
Sequence of recombinant human tau isoform 0N3R (P10636 other isoform, or with tags, fused parts or gaps limits assumed): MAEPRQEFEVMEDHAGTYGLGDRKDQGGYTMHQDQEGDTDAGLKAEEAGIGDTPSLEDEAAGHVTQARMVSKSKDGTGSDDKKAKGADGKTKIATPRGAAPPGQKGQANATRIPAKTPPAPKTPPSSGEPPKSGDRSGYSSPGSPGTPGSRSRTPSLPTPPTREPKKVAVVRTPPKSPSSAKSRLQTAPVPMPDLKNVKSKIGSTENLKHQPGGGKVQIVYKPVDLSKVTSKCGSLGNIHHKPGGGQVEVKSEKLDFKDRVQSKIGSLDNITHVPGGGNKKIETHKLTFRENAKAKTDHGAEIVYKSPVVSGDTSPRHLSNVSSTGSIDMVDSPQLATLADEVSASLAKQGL
Another assay deals with tau 127-441 (human, UniProt P10636 378-758). Described as above.
Sequence of tau 127-441 (P10636 other isoform, or with tags, fused parts or gaps): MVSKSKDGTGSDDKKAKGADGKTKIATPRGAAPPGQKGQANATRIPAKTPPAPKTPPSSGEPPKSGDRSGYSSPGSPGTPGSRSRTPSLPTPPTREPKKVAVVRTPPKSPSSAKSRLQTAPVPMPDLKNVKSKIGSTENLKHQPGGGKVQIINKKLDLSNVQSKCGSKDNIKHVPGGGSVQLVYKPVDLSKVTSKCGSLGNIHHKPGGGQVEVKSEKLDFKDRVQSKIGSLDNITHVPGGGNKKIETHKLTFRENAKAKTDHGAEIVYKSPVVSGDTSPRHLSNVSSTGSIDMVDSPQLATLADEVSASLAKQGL
Assay [6] deals with recombinant human tau isoform 0N4R (human, UniProt P10636-6 1-383). Described as above.
Sequence of recombinant human tau isoform 0N4R (P10636 other isoform, or with tags, fused parts or gaps limits assumed): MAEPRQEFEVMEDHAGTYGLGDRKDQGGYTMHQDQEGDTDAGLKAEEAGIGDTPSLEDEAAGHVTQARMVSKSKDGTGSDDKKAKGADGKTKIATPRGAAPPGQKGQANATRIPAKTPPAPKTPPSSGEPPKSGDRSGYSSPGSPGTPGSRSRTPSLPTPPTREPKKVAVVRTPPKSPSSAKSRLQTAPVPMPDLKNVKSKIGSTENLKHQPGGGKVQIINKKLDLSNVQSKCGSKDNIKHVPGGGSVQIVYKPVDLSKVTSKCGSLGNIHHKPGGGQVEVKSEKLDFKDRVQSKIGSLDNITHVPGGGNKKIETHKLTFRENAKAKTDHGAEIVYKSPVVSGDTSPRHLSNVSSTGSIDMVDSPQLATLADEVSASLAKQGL
A further assay concerns the target tau 1-226 (human, UniProt P10636 1-543). The description is as above.
The target in assay [7] is recombinant human tau isoform 1N4R (human, UniProt P10636-7 1-412). Described as above.
A further assay has as its target tau 31-441 (human, UniProt P10636 31-758). Described as above.
The target in assay [8] is in vitro phosphorylated tau151-391 (human, UniProt P10636 468-708, in vitro phosphorylated with rat brain kinase extract; sites not determined). The assay can be described thus: immunoblot. A general note: A western blot detects proteins with antibodies after separation by electrophoresis.
Sequence of in vitro phosphorylated tau151-391 (P10636 468-708 I625L): as the sequence (P10636 468-708 I625L) above
Assay [9] addresses T4, in vitro phosphorylated tau 2N4R (human, UniProt P10636 1-758, in vitro phosphorylated with rat brain kinase extract; sites not determined).
T4 construct: also called phosphorylated 2N4R; 2N4R in vitro phosphorylated
The assay can be described thus: immunoblot.

Assay [10] has as its target T5, recombinant human full-length tau 2N4R (human, UniProt P10636 1-758).
T5 construct: Expressed in E. coli, unphosphorylated; also called tau441; physiological tau (2N4R)
The assay is described as follows: immunoblot.

Assay [11] deals with B1. The assay can be described thus: competition ELISA, coated tau 1-242, peptide in solution with purified DC2E2.
Assay [12] concerns the target phosphorylated tau 2N4R point mutant Thr217Ala (human, UniProt P10636 1-758, in vitro phosphorylated with rat brain kinase extract; sites not determined). The assay is described as follows: immunoblot of in vitro phosphorylated point mutants.
Assay [13] concerns the target phosphorylated tau 221-441 (human, UniProt P10636 538-758, in vitro phosphorylated with rat brain kinase extract; sites not determined). The assay can be described thus: immunoblot of in vitro phosphorylated deletion mutants.

Sequence of recombinant human tau isoform 1N3R (P10636 other isoform, or with tags, fused parts or gaps limits assumed): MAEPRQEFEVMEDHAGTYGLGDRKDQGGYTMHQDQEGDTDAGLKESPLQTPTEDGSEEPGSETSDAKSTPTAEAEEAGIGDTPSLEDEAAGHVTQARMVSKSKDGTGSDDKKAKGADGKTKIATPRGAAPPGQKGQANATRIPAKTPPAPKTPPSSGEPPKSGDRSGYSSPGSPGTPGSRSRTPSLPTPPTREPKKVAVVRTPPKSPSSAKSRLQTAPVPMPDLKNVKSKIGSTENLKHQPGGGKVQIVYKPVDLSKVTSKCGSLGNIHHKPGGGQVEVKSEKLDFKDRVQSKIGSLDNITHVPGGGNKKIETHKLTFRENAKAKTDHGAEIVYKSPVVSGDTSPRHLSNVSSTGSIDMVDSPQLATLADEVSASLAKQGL
Sequence of tau 1-226 (P10636 other isoform, or with tags, fused parts or gaps): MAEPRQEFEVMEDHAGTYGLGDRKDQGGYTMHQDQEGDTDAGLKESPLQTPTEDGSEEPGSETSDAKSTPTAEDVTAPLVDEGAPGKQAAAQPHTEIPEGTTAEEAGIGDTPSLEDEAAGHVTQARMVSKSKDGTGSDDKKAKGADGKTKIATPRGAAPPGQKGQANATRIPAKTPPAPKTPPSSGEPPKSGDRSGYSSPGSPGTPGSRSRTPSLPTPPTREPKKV
Sequence of phosphorylated tau 221-441 (P10636 538-758 I625L): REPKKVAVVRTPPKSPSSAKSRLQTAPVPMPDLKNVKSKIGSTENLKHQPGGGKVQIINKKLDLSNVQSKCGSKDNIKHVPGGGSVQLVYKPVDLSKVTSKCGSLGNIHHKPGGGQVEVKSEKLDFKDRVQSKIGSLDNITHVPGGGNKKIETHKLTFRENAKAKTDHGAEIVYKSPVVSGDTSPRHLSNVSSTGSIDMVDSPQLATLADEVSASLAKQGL
T3 sequence (P10636 538-758 I625L): as above
Sequence of phosphorylated tau 2N4R point mutant Thr217Ala (P10636 other isoform, or with tags, fused parts or gaps T217A T217A limits assumed): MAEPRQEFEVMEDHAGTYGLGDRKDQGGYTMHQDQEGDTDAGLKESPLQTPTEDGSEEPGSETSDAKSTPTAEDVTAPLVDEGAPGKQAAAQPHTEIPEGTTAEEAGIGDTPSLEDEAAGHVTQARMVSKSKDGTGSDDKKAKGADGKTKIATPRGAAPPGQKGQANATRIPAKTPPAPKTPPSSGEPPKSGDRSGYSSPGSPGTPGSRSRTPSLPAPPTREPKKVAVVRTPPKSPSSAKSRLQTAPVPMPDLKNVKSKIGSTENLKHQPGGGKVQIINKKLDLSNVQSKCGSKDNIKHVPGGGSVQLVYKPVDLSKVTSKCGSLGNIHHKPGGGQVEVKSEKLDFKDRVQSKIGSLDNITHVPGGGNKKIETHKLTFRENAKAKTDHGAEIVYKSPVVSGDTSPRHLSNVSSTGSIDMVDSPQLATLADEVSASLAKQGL
T4 sequence (P10636 other isoform, or with tags, fused parts or gaps limits assumed): as the sequence (P10636 other isoform, or with tags, fused parts or gaps T217A T217A limits assumed) above, with A217T counted along it
T5 sequence (P10636 other isoform, or with tags, fused parts or gaps limits assumed): as the sequence (P10636 other isoform, or with tags, fused parts or gaps T217A T217A limits assumed) above, with A217T counted along it

For the molecule SR[pT]PSLP[pT]PP (Synthetic peptide (EZBiolabs)) [peptide tau 210-219/pT212/pT217], the binding result in assay [1] is on record as “no binding”.

Take TPPSSGEPPKSGDRSGYSSPGSPGTPGSRS (Synthetic peptide (EZBiolabs)) [peptide tau 181-210]: in [2], the binding result is given as “no binding”.

As for IPAKTPPAPKTPPSSGEPPKSGDRSGYSSP (Synthetic peptide (EZBiolabs)) [peptide tau 171-200], in assay [2], the binding result is recorded as “no binding”.

For SR[pT]PSLP[pT]P (Synthetic peptide (EZBiolabs)) [peptide tau 210-218/pT212/pT217], the binding result in assay [1] was “no binding”.

Take B1: the binding result in the assay with tau 1-242 is given as “binds”; in the assay with tau 1-136, “no binding”; with tau 2N4R(A134-168), “no binding”; with tau 221-441 it was “no binding”; in the assay with tau151-391 it was “binds”; in [3], “binds”. The binding result (in [4]; with tau 99-441; in [5]; with tau 127-441; in [6]; in the assay with tau 1-226) was “binds” throughout. The binding result (in [7]; with tau 31-441; in assay [8]; in assay [9]; in assay [10]) was “binds” throughout.

Turning to SR[pT]PSLP[pT]PPT (Synthetic peptide (EZBiolabs)) [peptide tau 210-220/pT212/pT217], the binding result in [1] is listed as “no binding”.

GQKGQANATRIPAKTPPAPKTPPSSGEPPK (Synthetic peptide (EZBiolabs)) [peptide tau 161-190]: the binding result in assay [11] is listed as “binds”.

Consider B2, for which the binding result in assay [12] and in [13] was “no binding” throughout.

Take KAKGADGKTKIATPRGAAPPGQKGQANATR (Synthetic peptide (EZBiolabs)) [peptide tau 141-170]: the binding result in assay [2] is given as “no binding”.
